Laboratory results published in patent publication US20110085986A1, “Diagnosis and treatment of epithelial cancers using labeled/conjugated progastrin peptides” (priority 2009, published 2011).
Ends that are not written are not given here. Peptide text beside a SMILES is read from it. * marks the point of attachment. FITC = O=C1OC2(c3ccc(O)cc3Oc3cc(O)ccc32)c2ccc(NC(=S)*)cc21

Experiments:
Anx A2 [1] = target: T1, Anx A2 (Rattus norvegicus, UniProt Q07936); conditions: Anx A2 prepared from cancer cells/tumor membranes; cited from earlier work
T1 construct: the 36 kDa Anx A2 protein, prepared from cancer cells/tumor membranes; endogenous in cells

CCK1R = test: Affinity of amidated gastrins for CCK1R; format: binding
[2] = Biological activity of PG26
From the text: For data presented in FIGS. 2-4, 5A-5B and 6A-6E, the full length 80 amino acid rhPG was used (SEQ ID NO: 2), which was visualized by staining with fluorescently labeled primary or secondary antibodies. However, in order to examine the feasibility of using PG peptides for diagnostic and treatment purposes, synthesized FITC labeled PG fragments (PG26, SEQ ID NO 1: […]) conjugated with either radio- or fluorescently labeled imaging reagents (for diagnostic purposes), or with cytotoxic payloads (for therapeutic purposes) was studied. […] Endocytotic internalization of FITC-PG26 in PG responsive immortalized kidney embryonic cell line, HEK-293, was examined. Strong peri-nuclear co-localization of FITC-PG26 with Anx A2 was measured within 15 min of labeling in a chase experiment (FIG. 7). […] The homing potential of FITC-PG26 to Anx A2 over-expressing tumors, growing as xenografts in nude mice, was confirmed, as shown in FIGS. 8A-8E.

colon cancer xenograft = test: Homing of FITC-PG26 to Anx A2 over-expressing tumors growing as xenografts in nude mice; format: in vivo
Experimental: FIGS. 8A-E depict 10-100 μg of FITC-PG-26 peptide was dissolved in 100 μl of saline was used to detect the tumor in nude mice. The images were captured in live mice after 1-60 minutes, with injection on the tumor site (FIG. 8A) or through tail vein (FIGS. 8B-D). In FIG. 8B, the localization of tumor cells are marked with arrows detected after 5 minutes post tail vein injection.
For data presented in FIGS. 2-4, 5A-5B and 6A-6E, the full length 80 amino acid rhPG was used (SEQ ID NO: 2), which was visualized by staining with fluorescently labeled primary or secondary antibodies. […] Strong peri-nuclear co-localization of FITC-PG26 with Anx A2 was measured within 15 min of labeling in a chase experiment (FIG. 7). […]
The 26 amino acid PG peptide (PG26), labeled with FITC at the N-terminal end, specifically homed to the site of a colon cancer xenograft, growing either under the skin or growing as a metastatic lesion in the liver. […] Even small tumor lesions were detected with FITC-PG26 after […] of tail vein injection (FIG. 8B). FITC-control peptide was not detected after 30 min of injecting into the tail vein (FIG. 8E), confirming the specificity of FITC-PG26 peptide for homing to tumors in situ.

[3] = tested on: immortalized cells (IEC, HEK-293) and cancer cell lines (from ovaries/colons); test: Co-localization of PG with Anx A2 in PG-responsive cells; format: cell-based; conditions: cells responsive to growth effects of PG peptides
From the text: (§1) Adenoma and adenocarcinomas tissue sections (from ovarian and colorectal cancers of patients) were positive for Anx A2 expression, while normal tissues were negative (FIGS. 4, 5A-5B). Immortalized intestinal epithelial cell line (IEC-18) are used, which responds to the growth and anti-apoptotic effects of PG peptides (9), for further investigating the biology of interaction of PG with Anx A2. Intra-cellular translocation of labeled PG was examined in IEC-18 cells. […] Using fluoroscense assisted sorting with labeled anti-Anx A2-Abs, presence of extracellular Anx A2 was confirmed on IEC-18 cells (FIG. 6B).

Anx A2 [4] = target: Anx A2 (Homo sapiens, UniProt P07355); test: In vitro binding assay and co-IP of rhPG and ANX-II; conditions: in vitro binding assay, FIG. 3
From the text: Lane 1 is rhPG; lane 2 is ANX-II; lanes 3 and 4 are rhPG and ANX-II; lane 3 is IP with anti-PG (aPG); lane 4 is IP with anti-ANX-II (aANX-II). All the samples were processed for WB with both aPG and ANX-II.
as §1

IEC-18 cells = test: Intra-cellular translocation of PG in IEC-18 cells (confocal microscopy, pull down/WB, Anx A2 siRNA); format: cell-based
Experimental: FIGS. 6A-6E depict the binding of PG with ANXII. FIG. 6A depicts immuno-colocalization of ANXII/PG in IEC cells, incubated with PG. E. IEC-18 cells were seeded, on sterile glass cover slips. Following overnight culture cells were incubated with PG (1 nM) from 0-15 min, and washed 3× with chilled PBS. Cells were fixed in acetone:methanol for 20 min at −20° C., and incubated with anti-PG or anti-ANXII-Abs, followed by fluorescence labeling with second Abs. Images were captured by confocal microscopy at 60×. Insets represent computer assisted enlarged images. Arrows depict co-localization on membranes. […] Cells in culture were detached with liberase to make single cell suspensions and incubated with either non-immune IgG or anti-ANXII-Ab for 2 hours at room temperature, washed with chilled PBS followed by incubation with FITC-second-Ab for 1 hours at room temperature. FIG. 6C depicts IEC-18 cells in culture treated with PG for 0-15 min except for Lamp1 (treated for 0-30 min) at 37° C. and washed with chilled PBS 3×. Cells were processed for pull down with anti-PG-Ab and processed for WB analysis for either EEA1/ANXII/PG/Lamp1. […] The inset portion of the co-localization staining is also shown.
as §1
Since Anx A2 lacks transmembrane domains, mechanisms mediating translocation of Anx A2/PG from outer cell membranes towards intracellular compartments remains unknown. Anx A2 also binds transmembrane proteins such as CD44, which are over-expressed in cancer cells. Thus the tumor specific expression of CD44-like transmembrane proteins offers an additional level of cancer-specific regulation, allowing intra-cellular translocation of PG-Anx A2 only in tumor cells. […] Co-localization of PG/Anx A2 with the early endosomal marker (EEA1) was examined. Cellular lysates from IEC-18 cells, treated with PG for 0, 5 and 15 min, were pulled down with anti-PG Abs and processed for WB analysis for EEA1, Lamp1 (lysomal marker), Anx A2 and PG (FIG. 6C). Possible in situ co-localization of EEA1 with PG was also examined after 15 min of PG stimulation by confocal microscopy (FIG. 6D). […]

T1 sequence (Q07936 whole entry): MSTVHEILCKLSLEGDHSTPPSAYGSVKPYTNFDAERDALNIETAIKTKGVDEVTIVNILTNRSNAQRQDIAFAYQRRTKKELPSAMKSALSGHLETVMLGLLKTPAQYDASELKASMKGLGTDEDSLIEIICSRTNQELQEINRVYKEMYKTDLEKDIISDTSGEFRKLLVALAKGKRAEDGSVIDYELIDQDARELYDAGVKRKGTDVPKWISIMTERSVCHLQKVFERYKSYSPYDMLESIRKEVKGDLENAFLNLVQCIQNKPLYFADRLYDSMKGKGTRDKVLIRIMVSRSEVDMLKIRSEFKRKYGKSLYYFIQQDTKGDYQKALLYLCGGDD
Sequence of Anx A2 (Homo sapiens, UniProt P07355) (P07355 whole entry, species assumed): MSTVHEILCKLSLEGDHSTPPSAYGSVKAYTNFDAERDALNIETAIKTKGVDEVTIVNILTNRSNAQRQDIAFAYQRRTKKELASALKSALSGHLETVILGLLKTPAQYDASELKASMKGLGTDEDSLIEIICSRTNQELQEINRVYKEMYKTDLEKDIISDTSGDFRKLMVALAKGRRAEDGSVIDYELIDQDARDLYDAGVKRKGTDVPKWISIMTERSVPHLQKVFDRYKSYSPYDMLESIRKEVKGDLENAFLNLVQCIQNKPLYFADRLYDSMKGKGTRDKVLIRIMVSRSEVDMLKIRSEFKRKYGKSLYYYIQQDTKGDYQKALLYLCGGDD

CCK8: cholecystokinin CCK8 [reference compound]
Relative binding affinity (RBA) for the 36 kDa Anx A2 protein, rank order (Anx A2 [1]): no affinity

G34: amidated gastrin (QLGPQGPPHLVADPSKKQGPWLEEEEEAYGWMDF-NH2; ends and bridges not checked; UniProt P01350 59-92, looked up)
affinity for CCK1R (CCK1R): much higher affinity

QGPWLEEEEEAYGWMDFGRRSAEDEN (homing progastrin peptide specifically binding annexin2) [PG26, 26 amino acid PG peptide fragment]
biological activity [2]: biologically active

CSCC[C@H](NC(=O)[C@H](Cc1c[nH]c2ccccc12)NC(=O)CNC(=O)[C@H](Cc1ccc(O)cc1)NC(=O)[C@H](C)NC(=O)[C@H](CCC(=O)O)NC(=O)[C@H](CCC(=O)O)NC(=O)[C@H](CCC(=O)O)NC(=O)[C@H](CCC(=O)O)NC(=O)[C@H](CCC(=O)O)NC(=O)[C@H](CC(C)C)NC(=O)[C@H](Cc1c[nH]c2ccccc12)NC(=O)[C@@H]1CCCN1C(=O)CNC(=O)[C@H](CCC(N)=O)NC(=S)Nc1ccc2c(c1)C(=O)OC21c2ccc(O)cc2Oc2cc(O)ccc21)C(=O)N[C@@H](CC(=O)O)C(=O)N[C@@H](Cc1ccccc1)C(=O)NCC(=O)N[C@@H](CCCNC(=N)N)C(=O)N[C@@H](CCCNC(=N)N)C(=O)N[C@@H](CO)C(=O)N[C@@H](C)C(=O)N[C@@H](CCC(=O)O)C(=O)N[C@@H](CC(=O)O)C(=O)N[C@@H](CCC(=O)O)C(=O)N[C@@H](CC(N)=O)C(=O)O [FITC-PG26] ({FITC}-QGPWLEEEEEAYGWMDFGRRSAEDEN-OH; N-terminus and C-terminus assumed)
retention in the tumor (colon cancer xenograft; i.v. injection through the tail vein, FIG. 8C): ~60 min | retention of fluorescence in tumor (colon cancer xenograft; injected intra-tumorally, FIG. 8A): > 20 min

G17: amidated gastrin
affinity for CCK1R (CCK1R): much higher affinity

B1: PG: full length 80 amino acid rhPG (SEQ ID NO: 2) (protein)
chain: SWKPRSQQPDAPLGTGANRDLELPWLEQQGPASHHRRQLGPQGPPHLVADPSKKQGPWLEEEEEAYGWMDFGRRSAEDEN
modifications: recombinant human progastrin
Relative binding affinity (RBA) for the 36 kDa Anx A2 protein, rank order (Anx A2 [1]): PG>G-Gly>G17 | co-localization of PG with Anx A2 [3]: strong co-localization | binding of Anx A2 and rhPG (Anx A2 [4]): Direct binding | PG binding/uptake (IEC-18 cells; IEC18 cells treated with specific siRNA against Anx A2, FIG. 6E): completely negative | localization of PG/Anx A2 after addition of PG (IEC-18 cells; IEC-18 cells, FIG. 6A): initial co-localization of PG with Anx A2 on the cellular membranes, followed by rapid intracellular localization | time to translocation of Anx A2 and PG into early endosomes (IEC-18 cells; after PG stimulation, IEC-18 cells): ≤ 5 min | increase in co-IP of Lamp1 with PG (IEC-18 cells; later time points, FIG. 6C): ~5 fold

B2: G-Gly: glycine-extended gastrin, processing intermediate of progastrin (peptide)
peptide: SWKPRSQQPDAPLGTGANRDLELPWLEQQGPASHHRRQLGPQGPPHLVADPSKKQGPWLEEEEEAYGWMDFGRRSAEDEN
Relative binding affinity (RBA) for the 36 kDa Anx A2 protein, rank order (Anx A2 [1]): PG>G-Gly>G17
